Biological target: the molecule itself
Assay: SEC

B1: (S)-2-hydroxypropylphosphonic acid epoxidase from Pseudomonas syringae (enzyme, Pseudomonas syringae PB-5123, UniProt Q9JN69 1-190, looked up)
chain: MDVRTLAVGKAHLEALLATRKMTLEHLQDVRHDATQVYFDGLEHLQNVAQYLAIPLSEFFVGQTQSDLDDGVKIARRNGGFKREEIRGGVHYYTYEHLVTTNQDPGLMALRLDLHSDDEQPLRLNGGHGSREIVYVTRGAVRVRWVGDNDELKEDVLNEGDSIFILPNVPHSFTNHVGGAKSEIIAINYG
modifications: Tyr95 highly likely post-translationally hydroxylated to DOPA
B1 was tested, and the “stoichiometry N” value was 3.

— PMC2780581 (Biochemistry, 2008)
